Results: paper PMC11289419, “Modular RNA motifs for orthogonal phase separated compartments”

T1: P22 N peptide (bacteriophage P22, UniProt P04891 14-30)
T1 chain: NAKTRRHERRRKLAIER

B1: 4m5 nanostar with P22 boxB (structured_RNA)
RNA 1: GGUGCGCUGACAAAGCGCGCCGAGCUCAGAGUCUCUGGUCGCCAAGCUUAUCGGACACUG
RNA 2: GAGCUCAAGUAGGCACAUCAGCAAGGCGACCAGAGACUC
RNA 3: GAGCUCAUGCGUGGAGACAACGAAGCUGAUGUGCCUACU
RNA 4: GAGCUCACAGUGUCCGAUAAGCAACGUUGUCUCCACGCA
B2: 4m3 nanostar with streptavidin aptamer (structured_RNA)
RNA 1: GAUGCGGCCGCCGACCAGAAUCAUGCAAGUGCGUAAGAUAGUCGCGGGUCGGCGGCCGCAUCGCGCAUCCACGGCGUGUCGCAAGACGCCGACGCGUCG
RNA 2: GCGCAGUCGGGAUAUACCGGAAGCGACACGCCGUGGA
RNA 3: GCGCAAGUCCACAGUGGCGCAACCGGUAUAUCCCGAC
RNA 4: GCGCACGACGCGUCGGCGUCAAGCGCCACUGUGGACU

Experiments:
[1] = molecular target: T1, P22 N peptide; test: fluorescence microscopy recruitment to RNA condensate; 25% aptamer strand; Multi-stranded: 40 mM HEPES, 100 mM KCl, 500 mM NaCl, 5 uM strands (1.25 uM aptamer strand), 70 C melt, 12 h hold (50 C), imaged after 20 C; co-transcriptional: T7 transcription buffer with 10 mM NaCl, 30 mM MgCl2, 2 mM spermidine, 37 C; pH not given; conditions: tags: 6-FAM (stated for single-stranded nanostar experiments); four-arm nanostar of 4 strands, 5' palindromic sticky end GAGCUC on S2-S4; boxB hairpin 5' of the S1 sticky end
[2] = molecular target: streptavidin (fluorescently labeled) (UniProt P22629 25-183); test: as above; conditions: protein: commercial; tags: fluorescent label; chain copies: 4; four-arm nanostar of 4 strands, 5' palindromic sticky end GCGC on S2-S4; aptamer 5' of the S1 sticky end
streptavidin (fluorescently labeled), sequence (P22629 25-183): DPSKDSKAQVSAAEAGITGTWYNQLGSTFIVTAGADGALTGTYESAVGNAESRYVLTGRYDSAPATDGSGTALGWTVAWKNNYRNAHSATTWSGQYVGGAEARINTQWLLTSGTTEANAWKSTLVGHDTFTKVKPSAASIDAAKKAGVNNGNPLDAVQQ

Binder | binding result [1] | binding result [2]
B1 | binds | 
B2 |  | binds
